Reference: US20130252821A1, “METHODS AND COMPOSITIONS FOR THE TREATMENT AND DIAGNOSIS OF DISEASES CHARACTERIZED BY VASCULAR LEAK, HYPOTENSION, OR A PROCOAGULANT STATE” (Beth Israel Deaconess Medical Center, Inc., priority 2005, published 2013)

Key:
[1] = system: HMVEC monolayers; assay: Immunofluorescence of endothelial architecture (F-actin, VE-cadherin); type: cell-based, human; details: 10% patient serum plus 100 ng/ml recombinant human Ang-1
Description: HMVEC were grown to confluence on glass coverslips coated with 1% gelatin. The cells were fixed for 10 minutes in 4% paraformaldehyde in PBS, incubated for 5 min in 0.5% Triton X-100 in PBS. After blocking, the monolayers were processed for staining with anti-VE-cadherin monoclonal antibody (BD Pharmingen, San Diego, Calif.) and Alexa Fluoro 488 goat anti-mouse IgG, rhodamine phalloidin (Molecular Probe, Eugene, Oreg.) for F-actin staining and TOPRO-3-iodine (Molecular Probe) for nuclear staining. Fluorescence images were obtained using a Bio Rad MRC confocal fluorescence microscope. For human subject serum experiments, serum was diluted to 10% with EBM-2 and filtered with low protein binding PVDF membrane (0.22 μm, Millipore Corp) prior to application on endothelial cell monolayers.

[2] = system: myosin light chain (MLC) phosphorylation in HMVECs; assay: MLC phosphorylation assay (Western blot); type: cell-based, human; details: Ang-1 100 ng/ml added
Description: After signal starvation with 0.25% FBS EBM-2 for 24 h, cells were treated with 100 ng/ml Ang-2 or vehicle for 0, 1, 3, and 6 hours. Phosphorylated myosin light chain (MLC-p) (phospho-serine 19) and GAPDH were detected by Western blot analysis. For human subject serum effects on HMVECs, serum was diluted to 5% with EBM-2 and filtered with low protein binding PVDF membrane (0.22 μm, Millipore Corp, Bedford, Mass.). Anti-MLC-phospho-serine-19 Ab was obtained from Abcam Inc.

[3] = system: mice (female FVB strain), lung; assay: In vivo permeability assay (Evans blue, LPS); design: species or system mouse; details: Ang-1 10 mcg ip x 2 doses
Description: Mice (8-12 weeks old, female FVB strain) were pretreated with Ang-1 (10 mcg, ip). 8 hours after the first Ang-1 injection, the second dose of Ang-1 (10 mcg, ip) and LPS (100 μg, ip) were co-injected. Lung permeability was assessed 16 hours after the second injection. Mice were anesthetized with Avertin (2,2,2-Tribromoethanol) and 2% Evans blue (50 μl) was then injected into the retro-orbital sinus. Ten minutes after Evans blue injection, mice were sacrificed and perfused with PBS with 2 mM EDTA for 10 minutes through a cannula placed in the right ventricle. […] Organs were then harvested and homogenized in 1.5 nil formamide. Evans blue was extracted by incubating the samples at 70° C. for 24 hours, and the concentration of Evans blue was estimated by dual-wavelength spectrophotometer (620 and 740 nm). The following formula was used to correct optical densities (E) for contamination with heme pigments: E620 (corrected)=E620−(1.426XE740+0.030).

[4] = system: mice (female FVB strain), lung; assay: Lung histology after LPS; type: in vivo, mouse; details: Ang-1 10 μg ip x 2 doses
Description: Mice were treated as above and lungs were harvested, fixed in 10% formalin, embedded in paraffin, sectioned, and stained with hematoxilin and eosin. In Vivo Delivery of siRNA: Delivery of siRNA into mice was performed by TransIT® Hydrodynamic delivery solution (Mires, Madision, Wis.) per the manufacturer's instruction. Mice were injected with either 10 μg control siRNA or 10 μg p190RhoGAP siRNA in 2 nil delivery solution injected into the tail vein over 7 seconds. Four days later, p190RhoGAP knockdown was confirmed by lysing organs in RIPA buffer and performing Western analysis as outlined above. In vivo permeability and histological examination were performed as described above.

[5] = system: p85 subunit of PI3K; assay: PI3K activity assay (p85 phosphorylation ELISA); type: cell-based, human; details: Ang-1 100 ng/ml, 15 minutes
Description: After signal starvation, HMVEC-L were treated with vehicle or Ang-1 (100 ng/ml) for 15 minutes. Total and phosphorylated p85 subunits of PI3K were quantified using a commercial enzyme-linked immunosorbent assay according to the manufacturer's instruction (Active Motif, Carlsbad, Calif.). Phosphorylated PI3K p85 subunit was corrected by total PI3K.

[6] = system: MLC phosphorylation (MLC-P); assay: MLC-P immunoblot in HMVEC-L; type: cell-based, human; details: Ang-1, HMVEC-L
Description: HMVEC-L were washed with ice-cold PBS three times and lysed with ice-cold RIPA buffer (50 mM Tris-HCl pH7.4, 150 mM NaCl, 1% NP-40, 0.5% Sodium Deoxycholate, 0.1% SDS and 1 mM EDTA) supplemented with protease inhibitors (Roche Diagnostics, Indianapolis, Ind.), 1 mM NaF and 1 mM Na3VO4. Lysates were sonicated and centrifuged at 10,000 rpm for 10 minutes at 4° C., and supernatants were collected. Protein concentrations were determined by BCA protein assay with bovine serum albumin as standard (Pierce, Rockford, Ill.). Lysates were electrophoresed using NuPAGE system (Invitrogen Life Technologies, Franklin Lakes, N.J.) and transferred to PVDF membrane and immunoblotted with specific primary antibodies. Binding of primary antibodies was detected using horseradish peroxidase-conjugated secondary antibodies (Amersham Bioscience, Piscataway, N.J.) and SuperSignal WestDura (Pierce) as a chemiluminescence substrate. Primary antibodies were obtained from these suppliers: anti-phospho-Akt Ab (Ser 473), anti-Akt Ab and anti-phospho-myosin light chain 2 (Ser19) Ab were from Cell Signaling Technology; anti-GAPDH Ab was from Chemicon International (Temecula, Calif.).

B1: Ang-1: Human recombinant angiopoietin-1 purchased from R&D systems; Tie-2 agonist, endogenous Ang-2 antagonist (protein, listed as Homo sapiens)
chain: MTVFLSFAFLAAILTHIGCSNQRRSPENSGRRYNRIQHGQCAYTFILPEHDGNCRESTTDQYNTNALQRDAPHVEPDFSSQKLQHLEHVMENYTQWLQKLENYIVENMKSEMAQIQQNAVQNHTATMLEIGTSLLSQTAEQTRKLTDVETQVLNQTSRLEIQLLENSLSTYKLEKQLLQQTNEILKIHEKNSLLEHKILEMEGKHKEELDTLKEEKENLQGLVTRQTYIIQELEKQLNRATTNNSVLQKQQLELMDTVHNLVNLCTKEGVLLKGGKREEEKPFRDCADVYQAGFNKSGIYTIYINNMPEPKKVFCNMDVNGGGWTVIQHREDGSLDFQRGWKEYKMGFGNPSGEYWLGNEFIFAITSQRQYMLRIELMDWEGNRAYSQYDRFHIGNEKQNYRLYLKGHTGTAGKQSSLILHGADFSTKDADNDNCMCKCALMLTGGWWFDACGPSNLNGMFYTAGQNHGKLNGIKWHYFKGPSYSLRSTTMMIRPLDF
reversal of gap formation provoked by high Ang-2 sepsis serum [1]: reversed | effect on MLC phosphorylation caused by high Ang-2 serum (CE2) [2]: inhibited | effect on endotoxin-increased lung permeability [3]: blocked | effect on LPS-induced edema and leukocyte infiltration [4]: reversed | phosphorylation of the p85 subunit of PI3K [5]: induces phosphorylation of the p85 subunit of PI3K | time of peak MLC phosphorylation (MLC-P) after stimulation [6]: 0.5 to 1.0 h
